Biological target: 2019-nCoV RBD protein with C-terminal hexa-His tag (2019-nCoV (SARS-CoV-2), UniProt P0DTC2 319-541)
Assay: SPR, Biacore 8K, antibody captured on protein A chip, RBD as analyte
Protocol: Surface plasmon resonance analysis was performed using Biacore 8K (Biacore Inc.).
Binding kinetic constants were calculated using BIAevaluation software 8K (Biacore, inc.) software.

B1: GH12 antibody (antibody, human IgG1, lambda, V domains shown)
VH: EVQLVESGGGLVQPGGSLRLSCAASGFTFSSYWMSWVRQAPGKGLEWVANIKQDGSEKYYVDSVKGRFTISRDNAKNSLYLQMNSLRAEDTAVYYCTRAGWVRGAFDIWGQGTMVTVSS
VL: NFMLTQPHSVSESPGKTVTISCTGSSGSIASNYVQWYQQRPGSAPTTVIYEDNQRPSGVPDRFSGSIDSSSNSASLTISGLKTEDEADYYCQSYDSSNLWVFGGGTKLTVLG
notes: also called human antibody GH12
Q: For B1, which Kd is on record?
A: 5.87 nM

Q: What about the koff of the same binder?
A: 0.0173 s⁻¹

Q: And the kon?
A: 2.95e+06 M⁻¹ s⁻¹

Reference: patent US20230073067A1 (INSTITUTE OF MICROBIOLOGY CHINESE ACADEMY OF SCIENCE, published 2023)
